According to article PMC12368637:

Assays:
Human cystatin C (human) = Human cystatin C (human) (UniProt P01034); experiment: ITC; 300 uM HSA in the syringe, 30 uM HCC in the cell; PBS; 25.2 °C; MicroCal PEAQ-ITC; single set of identical sites model
[1] = target: Human serum albumin (human) (UniProt P02768); experiment: NMR (1H-15N HSQC and 15N relaxation); 15N-labelled V57G HCC with and without equimolar HSA (around 0.3 mM each); PBS, 90%/10% H2O/D2O, pH 7.0; 298 K

Row | Kd (Human cystatin C (human)) | dH (Human cystatin C (human)) | stoichiometry N (Human cystatin C (human)) | percent of V57G HCC that interacted with HSA [1] | Substance
1 | 1.15 µM | 7.87 kJ/mol | 0.642 | – | Human serum albumin (from UniProt P02768 25-609) (natural protein)
2 | – | – | – | 4% | V57G mutant of human cystatin C (from UniProt P01034 27-146) (natural protein)
